Measured values: article doi:10.1101/2019.12.15.877159

What was measured:
Test in all cases: non-reducing SDS-PAGE and western blot
[1] = target: transmembrane peptide of sDscamβ4 (Mesobuthus martensii)
[2] = target: transmembrane peptide of sDscamβ3 (Mesobuthus martensii)
[3] = target: transmembrane peptide of sDscamα (Mesobuthus martensii)
[4] = target: transmembrane peptide of sDscamβ2 (Mesobuthus martensii)
[5] = target: transmembrane peptide of sDscamβ5 (Mesobuthus martensii)
[6] = target: transmembrane peptide of sDscamβ6 (Mesobuthus martensii)

In the case of “transmembrane peptide of sDscamβ4 (domain or fragment)”, the percent of dimers [1] is reported as < 10% and the stoichiometry N [1] is reported as 2.

For “transmembrane peptide of sDscamβ3 (domain or fragment)”, the stoichiometry N [2] was 2.

“transmembrane peptide of sDscamα (domain or fragment)” gave a stoichiometry N [3] of 2.

Substance “transmembrane peptide of sDscamβ2 (domain or fragment)” has a stoichiometry N [4] of 2.

In the case of “transmembrane peptide of sDscamβ5 (domain or fragment)”, the percent of dimers [5] is reported as < 10% and the stoichiometry N [5] is reported as 2.

In the case of “transmembrane peptide of sDscamβ6 (domain or fragment)”, the stoichiometry N [6] is reported as 2.
